Residue numbers refer to the chain shown, from its start.

Assay [1] has as its target T1, hTNFRSF12 amino acids a28-80-M50A-hIgG1-Fc (human).
T1 construct: TWEAKR-Fc mutein, coated on the ELISA plate; also called TPP-1988
In words: ELISA: TWEAKR-Fc construct coated at 62 ng/ml, biotinylated IgG titrated from 100 nM; token + marks IC50 of 1 to […] pM. As to the method:
(§1) To obtain dose-reaction data, the different TWEAKR-Fc muteins were coated at a low concentration (62 ng/ml) onto a 384-well Maxisorb ELISA plate, and a serial 2-fold dilution of biotinylated IgG beginning with a concentration of 100 nM was used as a soluble binding partner. Detection was carried out using streptavidin-HRP and Amplex Red.
(§2) IgGs were biotinylated using an about 2-fold molar excess of biotin-LC-NHS (Pierce; Cat. No. 21347) according to the instructions of the manufacturer and desalted using Zeba desalting columns (Pierce; Cat. No. 89889).

The target in assay [2] is T2, hTNFRSF12 amino acids a28-80-S40R-hIgG1-Fc (human).
T2 construct: TWEAKR-Fc mutein, coated on the ELISA plate; also called TPP-1987
The assay is described as above. On the procedure: as §1, §2

The target of assay [3] is T3, hTNFRSF12 amino acids a28-80-T33Q-hIgG1-Fc (human).
T3 construct: TWEAKR-Fc mutein, coated on the ELISA plate; also called TPP-1986
The description is as above. On the procedure: as §1, §2

The target in assay [4] is T4, hTNFRSF12 amino acids a28-80-hIgG1-Fc (human).
T4 construct: wild-type TWEAKR-Fc (dimeric Fc fusion), coated on the ELISA plate; also called TPP-599; HUMAN-TNFRSF12Aaa28-80-hIgG1-Fc
The assay is described as above. On the procedure: as §1, §2

Assay [5] concerns the target T5, hTNFRSF12 amino acids a28-80-H60K-hIgG1-Fc (human).
T5 construct: TWEAKR-Fc mutein, coated on the ELISA plate; also called TPP-1989
The assay is described as above. As to the method:
as §1, §2

Assay [6] concerns the target T6, hTNFRSF12 amino acids a28-80-L65Q-hIgG1-Fc (human).
T6 construct: TWEAKR-Fc mutein, coated on the ELISA plate
Described as above. On the procedure: as §1, §2

The target of assay [7] is T7, TPP-2305, hTNFRSF12 amino acids a28-80 (recombinant human TWEAKR protein) (human, UniProt Q9NP84 28-80).
T7 construct: Soluble monomeric antigen, injected as analyte over the captured antibodies; Bought protein
Briefly: SPR (Biacore T100), antibody captured, TWEAKR TPP-2305 as analyte, 1:1 model. On the procedure: The antibodies were immobilized on a CM5 sensor chip using an indirect capture reagent, anti-human IgG(Fc). Reagents of the “Human Antibody Capture Kit” (BR-1008-39, GE Healthcare Biacore, Inc.) were used as described by the manufacturer.
Sensorgrams were generated after in-line reference cell correction, followed by subtraction of the buffer sample. The dissociation constant (KD) was calculated based on the ratio of association (kₒₙ) and dissociation (koff) constants, obtained by fitting sensorgrams using a 1:1 first order binding model.
A general note: Surface plasmon resonance follows binding to a sensor surface in real time, without labels.

B1: PDL-192(TPP-1104) (antibody, human IgG1, kappa, V domains shown)
VH: QVELVESGGGLVQPGGSLRLSCAASGFTFSSYWMSWVRQAPGKGLEWVAEIRLKSDNYATHYAESVKGRFTISRDDSKNSLYLQMNSLRAEDTAVYYCTGYYADAMDYWGQGTLVTVSS
VL: DIQMTQSPSSLSASVGDRVTITCRASQSVSTSSYSYMHWYQQKPGKAPKLLIKYASNLESGVPSRFSGSGSGTDFTLTISSLQPEDFATYYCQHSWEIPYTFGGGTKVEIKR
notes: human IgG1; variable domains from WO2009/020933 with a human IgG1 constant region added; biotinylated IgG in the ELISA
In the case of B1, the binding result in assay [1] was “binds”.

B2: 136.1(TPP-2194) (antibody, mouse IgG2a, kappa, V domains shown)
VH: EVKLEESGGGLVQPGGSMKLSCVASGFTFNNYWMSWVRQSPEKGLEWLAEIRLKSDNYATHYAESVKGKFTISRDDSKSRLYLQMNNLRAENTGIYYCTGGFADYFDYWGQGTTLTVSS
VL: DIVLTQSPASLTVSLGQRATISCRASQSVSTSSYSYMQWYQQRPGQPPKLLIKYATNLDSGVPARFSGSGSGTDFTLNIHPVEEEDAATYYCQHSWEIPYTFGGGTKLEIKR
notes: murine IgG2a; variable domains from WO2009/020933 with a murine IgG2 constant region added; biotinylated IgG in the ELISA
With B2, the binding result in assay [2], in assay [3], in assay [4], in assay [1], in assay [5] and in assay [6] was “binds” throughout.

B3: 18.3.3(TPP-2193) (antibody, mouse IgG2a, kappa, V domains shown)
VH: EVKLGESGGGLVQPGGSMKLSCVASGFPFTKYWMNWVRQSPEKGLEWVAEIRLKSDNYATHYAESAKGRFTISRDDSRSSVYLQMNNLRAEDTAIYYCSPTYADTMDYWGQGTSVTVSS
VL: B2 VL with T12A, R24K, S33T, P47S, T56S, N57K, A87T, I98L, K107R
notes: Comparative antibody, murine IgG2a; variable domains from WO2009/020933 with added constant regions
On to B3, for which, in assay [7], the Kd came to 1.7 nM, the koff is 0.0285 s⁻¹ and the kon is 1.64e+07 M⁻¹ s⁻¹.

B4: 18.3.3(TPP-2193) (antibody, mouse IgG2a, kappa, V domains shown)
VH: B3 VH
VL: B2 VL with T12A, R24K, S33T, P47S, T56S, N57K, A87T, I98L, K107R
notes: as for B2
With B4, the binding result in assay [2], in assay [3], in assay [4], in assay [1], in assay [5] and in assay [6] was “binds” each time.

B5: 136.1(TPP-2194) (antibody, mouse IgG2a, kappa, V domains shown)
VH: B2 VH
VL: B2 VL
notes: as for B3
Regarding B5, in assay [7], the Kd worked out at 0.8 nM, the koff worked out at 0.0324 s⁻¹ and the kon came out at 3.84e+07 M⁻¹ s⁻¹.

B6: P3G5(TPP-2195) (antibody, mouse IgG2a, kappa, V domains shown)
VH: QVQLQQSGPEVVRPGVSVKISCKGSGYTFTDYGIHWVKQSHAKSLEWIGVISTYNGYTNYNQKFKGKATMTVDKSSSTAYMELARLTSEDSAIYYCARAYYGNLYYAMDYWGQGTSVTVSS
VL: DIVLTQSPASLAVSLGQRATISCRANKSVSTSSYSYMHWYQQKPGQPPKLLIKYASNLESGVPARFSGSGSGTDFILNIHPVEEEDAATYYCQHSRELPFTFGSGTKLEIKR
notes: Comparative antibody, murine IgG2a; variable domains from WO2009/140177 with added constant regions
Turning to B6, in assay [7], the Kd was 0.5 nM, the koff was determined as 0.00122 s⁻¹ and the kon amounted to 2.31e+06 M⁻¹ s⁻¹.

B7: P4A8(TPP-1324) (antibody, human IgG1, kappa, V domains shown)
VH: QVQLVQSGAEVKKPGASVKVSCKGSGYTFTDYGMHWVRQAPGQGLEWMGVISTYNGYTNYNQKFKGRVTMTVDKSTSTAYMELRSLRSDDTAVYYCARAYYGNLYYAMDYWGQGTLVTVSS
VL: B6 VL with N26S, I76S, V82M, E85D, A87T, T89M, Y91F, S104G
notes: Comparative antibody, human IgG1; variable domains from WO2009/140177 with added constant regions
On to B7, for which, in assay [7], the Kd is 2.3 nM, the koff was 0.0027 s⁻¹ and the kon is 1.2e+06 M⁻¹ s⁻¹.

B8: TPP-883 (antibody, human IgG1, kappa, V domains shown)
VH: EVQLLESGGGLVQPGGSLRLSCAASGFTFSPYPMMWVRQAPGKGLEWVSYISPSGGKTHYADSVKGRFTISRDNSKNTLYLQMNSLRAEDTAVYYCARGGDGYFDYFDYWGQGTLVTVSS
VL: DIQMTQSPATLSASVGDRVTITCRASQSISSYLNWYQQKPGKAPKLLIYAASSLQSGVPSRFSGSGSGTDFTLTISSLQPEDFATYYCQQSYSSPGITFGPGTKVEIKR
notes: human IgG1
B8: in assay [7], the Kd was 206 nM, the koff worked out at 0.91 s⁻¹ and the kon came to 4.4e+06 M⁻¹ s⁻¹.

B9: TPP-2148 (antibody, human IgG1, kappa, V domains shown)
VH: B8 VH with G102T
VL: B8 VL with A50Q, S93T, G96F
notes: human IgG1
Take B9: in assay [7], the Kd was determined as 24.5 nM, the koff came out at 0.13 s⁻¹ and the kon was 5.1e+06 M⁻¹ s⁻¹.

B10: TPP-2077 (antibody, human IgG1, kappa)
light: DIQMTQSPATLSASVGDRVTITCRASQSISSYLNWYQQKPGKAPKLLIYAASSLQSGVPSRFSGSGSGTDFTLTISSLQPEDFATYYCQQSYSSPGITFGPGTKVEIKRTVAAPSVFIFPPSDEQLKSGTASVVCLLNNFYPREAKVQWKVDNALQSGNSQESVTEQDSKDSTYSLSSTLTLSKADYEKHKLYACEVTHQGLSSPVTKSFNRGEC
heavy: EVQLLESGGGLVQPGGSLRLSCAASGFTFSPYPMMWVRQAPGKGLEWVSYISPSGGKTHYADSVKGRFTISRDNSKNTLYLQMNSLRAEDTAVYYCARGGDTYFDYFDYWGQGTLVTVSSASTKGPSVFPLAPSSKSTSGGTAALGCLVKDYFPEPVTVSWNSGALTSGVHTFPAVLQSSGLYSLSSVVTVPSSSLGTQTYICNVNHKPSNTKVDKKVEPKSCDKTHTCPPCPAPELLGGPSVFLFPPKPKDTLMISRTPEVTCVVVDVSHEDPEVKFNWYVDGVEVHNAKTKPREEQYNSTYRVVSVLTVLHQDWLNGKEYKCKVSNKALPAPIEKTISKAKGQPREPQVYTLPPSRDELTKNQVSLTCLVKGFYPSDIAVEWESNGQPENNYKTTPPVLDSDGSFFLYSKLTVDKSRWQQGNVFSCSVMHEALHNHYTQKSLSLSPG
notes: human IgG1
B10: in assay [7], the Kd was found to be 28.9 nM, the koff turned out to be 0.086 s⁻¹ and the kon stood at 3e+06 M⁻¹ s⁻¹.

B11: TPP-1538 (antibody, human IgG1, kappa)
light: AQDIQMTQSPATLSASVGDRVTITCRASQSISSYLNWYQQKPGKAPKLLIYAASSLQSGVPSRFSGSGSGTDFTLTISSLQPEDFATYYCQQSYSSPGITFGPGTKVEIKRTVAAPSVFIFPPSDEQLKSGTASVVCLLNNFYPREAKVQWKVDNALQSGNSQESVTEQDSKDSTYSLSSTLTLSKADYEKHKLYACEVTHQGLSSPVTKSFNRGEC
heavy: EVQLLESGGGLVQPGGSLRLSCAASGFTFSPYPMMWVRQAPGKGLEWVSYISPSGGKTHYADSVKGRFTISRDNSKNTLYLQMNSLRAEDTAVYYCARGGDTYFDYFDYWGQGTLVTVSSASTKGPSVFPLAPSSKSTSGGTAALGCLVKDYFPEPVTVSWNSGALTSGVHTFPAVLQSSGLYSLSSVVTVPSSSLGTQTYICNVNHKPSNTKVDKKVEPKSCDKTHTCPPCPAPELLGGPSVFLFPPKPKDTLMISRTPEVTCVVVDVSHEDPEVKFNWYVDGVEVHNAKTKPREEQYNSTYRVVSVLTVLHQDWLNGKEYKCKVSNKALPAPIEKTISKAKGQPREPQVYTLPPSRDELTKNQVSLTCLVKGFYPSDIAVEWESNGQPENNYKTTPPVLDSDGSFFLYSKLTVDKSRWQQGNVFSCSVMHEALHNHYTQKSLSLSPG
notes: human IgG1
With B11, in assay [7], the Kd worked out at 27.6 nM, the dissociation rate constant (koff) is 0.11 s⁻¹ and the kon stood at 4.2e+06 M⁻¹ s⁻¹.

B12: TPP-2090 (antibody, human IgG1, kappa, V domains shown)
VH: B8 VH with M35I, K57S, G102T
VL: B8 VL with A9S, T10S, S31G, A50Q, S93T, G96F, P101Q
notes: human IgG1; also called anti-TWEAKR AK-1
As to B12, in assay [7], the Kd is 12.4 nM, the koff came out at 0.11 s⁻¹ and the kon amounted to 9.1e+06 M⁻¹ s⁻¹.

B13: TPP-2149 (antibody, human IgG1, kappa, V domains shown)
VH: B8 VH with M35I, G102T
VL: B8 VL with S31G, A50Q, S93T, G96F
notes: human IgG1
For the molecule B13, in assay [7], the Kd came out at 12.1 nM, the koff stood at 0.1 s⁻¹ and the kon was 8.4e+06 M⁻¹ s⁻¹.

B14: TPP-2093 (antibody, human IgG1, kappa, V domains shown)
VH: B8 VH with K57S, G102T
VL: B8 VL with A9S, T10S, A50Q, S93T, G96F, P101Q
notes: human IgG1
In the case of B14, in assay [7], the Kd stood at 22.1 nM, the koff is 0.09 s⁻¹ and the kon was 4.1e+06 M⁻¹ s⁻¹.

B15: TPP-2084 (antibody, human IgG1, kappa, V domains shown)
VH: B8 VH with K57S, G102T
VL: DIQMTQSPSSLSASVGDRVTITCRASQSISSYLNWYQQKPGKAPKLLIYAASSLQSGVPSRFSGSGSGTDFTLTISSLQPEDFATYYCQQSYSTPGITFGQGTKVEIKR
notes: human IgG1
B15: in assay [7], the Kd was determined as 27.6 nM, the koff amounted to 0.11 s⁻¹ and the kon amounted to 4.2e+06 M⁻¹ s⁻¹.

By Kd is commonly meant the constant that tells how readily two partners part at equilibrium. As usually defined, the koff is the rate constant with which the complex falls apart. The kon is the rate constant with which the complex forms.

These data come from patent US20160346402A1 (Bayer, published 2016).
